Data taken from PMC12284214, “Structural basis for the activity regulation of Medicago calcium channel CNGC15” (Cell Discovery, 2025).

Molecular target: the molecule itself
Assay: cryo-EM structure; MtCNGC15b alone, in 25 mM Tris pH 8.0, 150 mM NaCl, 0.006% GDN; 3.1 Å; also with 5 mM cGMP (no structural change)

B1: Medicago truncatula CNGC15b (natural protein, M. truncatula, UniProt G7JND3 1-620, looked up)
chain: MVTPKFMSDLFEGDHLELAKLTSPNGDNGIKFNEKHVAPRVLSRVFSEDYKRVKRRRRIFDPRGQTIHQWNKIFLVACLISLFVDPLFFYLPIVQDEVCIDIGIAVEVFLIIIRSIADVFYVIHIFMRFHTAYVAPSSRVFGRGELVIDSSKIASRYLHKGFFLDFIAALPLPQVLIWIVIPNLGGSTIANTKNVLRFIIIIQYLPRLFLIFPLSSQIVKATGVVTETAWAGAAYNLMLYMLASHVLGACWYLLSIERQEACWKSVCKLEESSCQFDFFDCNMVKDSLRVSWFVTSNVTNLCSPNSLFYQFGIYGDAVTSKVTTSAFFNKYFFCLWWGLRNLSSLGQGLLTSTFVGEIMFAIVIATLGLVLFALLIGNMQTYLQSTTVRLEEWRVKRTDTEQWMHHRQLPQELRQSVRKYDQYKWIATRGVDEESLLRGLPLDLRRDIKRHLCLELVRRVPLFDAMDERMLDAICERLKPALCTENTYLVREGDPVNEMLFIIRGNLDSYTTDGGRTGFFNSCRIGPGDFCGEELLTWALDPRPTMVIPSSTRTVKAISEVEAFALIAEDLKFVASQFRRLHSKQLRNKLRFHSHQWRTWAACFIQVAWRRTIQEKKGSC
notes: residues 58-385 were modelled in the apo map; In the functional rows the protein was made from cRNA in Xenopus oocytes with that signal peptide; also called MtCNGC15b; MtCNGC15; source: HEK293F, transfected; purified (anti-Flag M2, Strep-Tactin, SEC) in GDN; not shown: Flag, C-terminal, kept; TwinStrep, C-terminal, kept
binding result: binds
